Where two headings read alike, the source gives them in different places. Ends that are not written are not given here.
Columns and labels:
fixed Caco-2 cells = assay: ELISA of GST fusion proteins on fixed Caco-2 cells; type: binding; conditions: in words
Protocol: Fixed Caco-2, C2BBe1, and A431 cell plates were prepared by growing cells on tissue culture treated microtiter plates. When cells were confluent, plates were fixed with 10% formaldehyde, washed twice with PBS and stored with 0.5% BSA-PBS at −20° C. […] The standard ELISA procedure was followed at this point.
The standard ELISA procedure was modified as follows. GST proteins were diluted to an appropriate concentration in PBS containing 1% BSA and 0.05% Tween20 (1% BPT), titered and incubated one hour at room temperature. Following five washes an anti-GST monoclonal antibody was added (Sigma, St. Louis Clone GST-2 diluted 1:10,000 in 1% BPT) and incubated one hour. After five more washes goat anti-mouse IgG2b-HRP was added (Southern Biotechnology Associates Inc., Birmingham, Ala., diluted 1:4000 in 1% BPT) and incubated one hour. After five washes plates were developed with TMB peroxidase substrate (Kirkegard and Perry, Gaithersburg, Md.). All data is presented with background binding subtracted.

fixed C2BBe1 cells = assay: Competition ELISA: dansylated peptides versus GST fusion proteins on fixed C2BBe1 cells; type: binding; conditions: 5 μg/ml concentration used in competition assays
Protocol: The standard ELISA procedure was modified as follows. GST fusion proteins and peptides were diluted to an appropriate concentration in PBS containing 1% BSA and 0.05% Tween 20. Peptides were titered, a constant concentration of diluted GST protein was added to titered peptides and the mixture was incubated one hour at room temperature. Following five washes, an anti-GST monoclonal antibody was added (Sigma, St. Louis Clone GST-2 diluted 1:10,000 in 1% BPT) and incubated one hour. After five more washes goat anti-mouse IgG2b-HRP was added (Southern Biotechnology Associates Inc., Birmingham, Ala., diluted 1:4000 in 1% BPT) and incubated one hour. After five washes plates were developed with TMB peroxidase substrate (Kirkegard and Perry, Gaithersburg, Md.). All data is presented with background binding subtracted.
Data is presented as O.D. vs. peptide concentration and as percent inhibition of GST-P31 binding vs. peptide concentration. Uncompeted GST-P31 binding was considered as 100% binding.
FIGS. 10A–10C present a compilation of data generated by competition ELISA of GST-P31, GST-PAX2, GST-SNi10 and GST-HAX42 versus various dansylated peptides on fixed C2BBe1 cells. IC50 values are in μM and include ranges determined from multiple assays. The GST/C2BBe1 column is a summary of GST protein binding to fixed C2BBe1 cells.

[1] = test system: P100 membrane fraction of Caco-2 cells; assay: GST-PAX2 peptides: relative binding to P100 fractions (ratio to GST-HAX42); conditions: GST-peptide 20 μg/ml; binding to plastic subtracted; GST-HAX42 = 1.00
Protocol: The peptides and proteins were analyzed by a dansylated peptide ELISA method in which 96 well plates were coated overnight at 4° C. with 100 μl/well coating protein (normally 100 μg/ml P100 membrane fraction) in 0.05M carbonate buffer pH9.6. Nonspecific binding was blocked using 200 μl/well, 2% Marvel/PBS for 2 hours at 37° C. prior to incubation with dansylated peptides. The plates were washed three times with PBS/0.05% Tween 20 and after each subsequent incubation step. […] A buffer blank control was included to ensure that background binding to plastic was not due to the antibodies used in the assay system. […] The plates were then incubated with an anti-mouse λ-HRP conjugated antibody (Southern Biotech 1060-05) at a 1:10,000 dilution in blocking solution, 100 μl/well for 1 hour at room temperature. Plates were developed using 75 μl/well Bionostics TMB substrate and incubated for approximately 10 minutes. The developing reaction was stopped using Bionostics Red Stop solution (25 μl/well), and the optical density of the plates was read at 650 nm.
After subtraction of the GST-peptide binding to plastic from P100 binding values, the binding of GST-PAX2 peptides were represented as a ratio of GST-HAX42 binding to P100, which was given the arbitrary value of 1.00. The following ratios were determined from binding to P100 of GST-peptides at a peptide concentration of 20 μg/ml. […]

hPEPT1 = biological target: T1, hPEPT1 (Homo sapiens, UniProt P46059); assay: Receptor ELISA of phage on recombinant hPEPT1; type: binding; conditions: Table 4
T1 construct: 391–571; made in house
T1 sequence (P46059 391-571): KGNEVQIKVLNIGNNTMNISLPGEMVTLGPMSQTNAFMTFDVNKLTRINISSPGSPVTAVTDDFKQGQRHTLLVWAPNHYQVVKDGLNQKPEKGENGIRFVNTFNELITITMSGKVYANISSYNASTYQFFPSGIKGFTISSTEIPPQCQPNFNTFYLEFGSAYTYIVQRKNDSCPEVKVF
Protocol: (§1) 96 well plates were coated overnight with GIT receptor, BSA and, optionally, IDE (insulin degrading enzyme, an irrelevant His-fusion protein)or hTF. The plates were blocked for one hour with 0.5% BSA-PBS. After clarification, the amplified phage were diluted 1:100 in 1% BSA plus 0.05% Tween 20 in PBS and added to the plates. Following incubation of the plates on a rotator for 1 to 2 hours, the plates were washed 5 times with 1% BSA plus 0.05% Tween 20 in PBS. […] After the plates were washed 5 times, as described above, TMB substrate was added to the wells. The plates were read at 650 nm absorbance.

BSA = BSA (Bos taurus, UniProt P02769); assay: Receptor ELISA of phage on BSA (background control protein); type: binding; conditions: Table 4; phage panned on hPEPT1
Protocol: 96 well plates were coated overnight with GIT receptor, BSA and, optionally, IDE (insulin degrading enzyme, an irrelevant His-fusion protein)or hTF. The plates were blocked for one hour with 0.5% BSA-PBS. After clarification, the amplified phage were diluted 1:100 in 1% BSA plus 0.05% Tween 20 in PBS and added to the plates. Following incubation of the plates on a rotator for 1 to 2 hours, the plates were washed 5 times with 1% BSA plus 0.05% Tween 20 in PBS. Dilute anti-M13-HRP conjugate (anti-M13 antibody linked to horse radish peroxidase (HRP)) was added to all the wells and the plate was incubated for one hour on a rotator. After the plates were washed 5 times, as described above, TMB substrate was added to the wells. The plates were read at 650 nm absorbance.

[2] = test system: rat gastro-intestinal tract (closed loop); assay: Transport of preselected phage libraries in rat closed loop, detected by oligonucleotide hybridization/autoradiography; conditions: hPEPT1 pool; in words
[3] = biological target: T2, recombinant D2H receptor domain (human D2H transporter, amino acid residues 387-685), His-tag fusion protein (human, UniProt Q07837 387-685); assay: phage ELISA, OD on D2H over OD on BSA
T2 construct: purified under denaturing conditions; coated on plates
T2 sequence: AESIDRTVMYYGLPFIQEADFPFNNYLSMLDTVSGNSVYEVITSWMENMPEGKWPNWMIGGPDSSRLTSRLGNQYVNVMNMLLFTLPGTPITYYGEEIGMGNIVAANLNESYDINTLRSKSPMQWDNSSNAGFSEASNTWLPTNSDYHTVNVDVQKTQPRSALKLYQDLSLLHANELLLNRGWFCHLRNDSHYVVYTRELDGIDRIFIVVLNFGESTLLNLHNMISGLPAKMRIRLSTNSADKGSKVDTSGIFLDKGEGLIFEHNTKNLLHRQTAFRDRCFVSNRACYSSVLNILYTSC
Protocol: as §1, with “6.6. Receptor ELISA Procedure 96” for “96”
Binding to fixed Caco-2 cells, D2H and BSA was examined.

[4] = biological target: bovine serum albumin (bovine) (UniProt P02769); assay: phage ELISA on coated BSA
[5] = biological target: T3, recombinant D2H receptor domain (human D2H transporter, amino acid residues 387-685), His-tag fusion protein (human), Q07837; assay: phage ELISA on coated D2H
T3 chain: T2 sequence

[6] = biological target: T3, recombinant D2H receptor domain (human …); assay: phage ELISA, OD on D2H over OD on BSA
[7] = biological target: bovine serum albumin (bovine) (UniProt P02769); assay: phage ELISA on coated BSA; remark: listed apart in the source
[8] = biological target: T4, recombinant HPT1 receptor domain (human intestinal peptide-associated transporter HPT1, amino acid residues 29-273), His-tag fusion protein (human) (UniProt Q12864); assay: phage ELISA on coated HPT1
T4 sequence: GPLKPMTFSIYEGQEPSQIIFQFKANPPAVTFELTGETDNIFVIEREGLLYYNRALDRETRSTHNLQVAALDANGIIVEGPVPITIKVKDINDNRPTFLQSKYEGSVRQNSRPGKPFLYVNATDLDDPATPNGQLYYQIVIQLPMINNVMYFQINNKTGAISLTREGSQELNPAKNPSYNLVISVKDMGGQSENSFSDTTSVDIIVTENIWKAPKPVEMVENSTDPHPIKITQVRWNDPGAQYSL

[9] = biological target: T4, recombinant HPT1 receptor domain (human intestinal peptide-associated transporter HPT1, amino acid residues 29-273), His-tag fusion protein (human); assay: phage ELISA, OD on HPT1 over OD on BSA
[10] = biological target: T5, recombinant HPT1 receptor domain (human intestinal peptide-associated transporter HPT1, amino acid residues … (human, UniProt Q12864 29-273)); assay: phage ELISA, OD on HPT1 over OD on BSA
T5 construct: purified under denaturing conditions; coated on plates
T5 sequence: T4 sequence
Protocol: as §1, with “6.6. Receptor ELISA Procedure 96” for “96”

[11] = biological target: T6, recombinant hSI receptor domain (human sucrase-isomaltase complex, amino acid residues 272-667), His-tag … (human, UniProt P14410 272-667); assay: phage ELISA on coated hSI
T6 construct: purified under denaturing conditions on Ni-NTA agarose; coated on plates; also called hS1
Protocol: as §1, with “6.6. Receptor ELISA Procedure 96” for “96”

[12] = biological target: T6, recombinant hSI receptor domain (human …); assay: phage ELISA, OD on hSI over OD on BSA
Protocol: as §1, with “6.6. Receptor ELISA Procedure 96” for “96”

Chain of bovine serum albumin (bovine) (P02769 25-607 limits assumed): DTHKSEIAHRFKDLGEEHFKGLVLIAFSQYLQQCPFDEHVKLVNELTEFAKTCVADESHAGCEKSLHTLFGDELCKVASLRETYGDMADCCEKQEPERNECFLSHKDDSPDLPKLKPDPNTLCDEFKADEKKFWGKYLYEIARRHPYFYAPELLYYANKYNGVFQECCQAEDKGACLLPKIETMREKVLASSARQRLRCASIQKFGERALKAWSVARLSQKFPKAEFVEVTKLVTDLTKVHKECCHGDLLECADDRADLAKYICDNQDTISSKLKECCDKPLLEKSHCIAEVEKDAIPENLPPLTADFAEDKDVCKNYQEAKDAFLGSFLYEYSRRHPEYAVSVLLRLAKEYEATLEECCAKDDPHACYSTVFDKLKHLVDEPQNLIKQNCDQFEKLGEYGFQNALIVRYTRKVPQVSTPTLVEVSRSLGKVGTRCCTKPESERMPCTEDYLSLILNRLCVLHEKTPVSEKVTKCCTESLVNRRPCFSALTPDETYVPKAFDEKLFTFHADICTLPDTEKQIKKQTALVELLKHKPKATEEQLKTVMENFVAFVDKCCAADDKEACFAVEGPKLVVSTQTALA
T6 sequence (P14410 272-667 limits assumed, form in doubt, one chain of several): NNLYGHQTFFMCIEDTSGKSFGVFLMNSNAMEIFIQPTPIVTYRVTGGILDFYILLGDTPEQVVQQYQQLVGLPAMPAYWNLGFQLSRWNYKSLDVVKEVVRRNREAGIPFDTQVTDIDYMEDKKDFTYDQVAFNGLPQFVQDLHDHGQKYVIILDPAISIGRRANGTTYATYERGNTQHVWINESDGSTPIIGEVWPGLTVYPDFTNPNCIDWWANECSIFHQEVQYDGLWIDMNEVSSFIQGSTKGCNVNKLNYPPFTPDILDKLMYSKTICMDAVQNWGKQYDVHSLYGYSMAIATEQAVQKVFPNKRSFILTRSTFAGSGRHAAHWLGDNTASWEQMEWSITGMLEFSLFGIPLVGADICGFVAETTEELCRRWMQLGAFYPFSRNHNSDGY
Chain of BSA (P02769 25-607): as the sequence (P02769 25-607 limits assumed) above

GST-HAX42: GST-fusion protein from HAX42 (SDHALGTNLRSDNAKEPGDYNCCGNGNSTGRKVFNRRRPSAIPT; cysteine pairing not given here; also: GST fusion)
Binding to fixed Caco-2 or C2BBe1 cells relative to GST control (fixed Caco-2 cells): weak to moderate binding
Crossreactivity of GST fusion to ZElan018 (PAX2) and ZElan021 (HAX42) (fixed C2BBe1 cells): exhibited crossreactivity
Value (binding to P100 as ratio of GST-HAX42 binding) [1]: 1.00

RGSTGTAGGERSGVLNLHTRDNASGSGFKPWYPSNRGHK (not fully specified) [Peptide 5PAX5]
hPEPT1 (hPEPT1; phage panned on hPEPT1): 0.15 OD
PEPT1/BSA (hPEPT1; ratio of hPEPT1 to BSA binding): 4
BSA (BSA): 0.036 OD
Binding to / presence in the intestine samples [2]: not found
Presence in the portal circulation [2]: not found
Presence in the systemic circulation [2]: found in the systemic circulation

B1: phage DCX36 (peptide)
peptide: SWSSWNWSSKTTRLGDRATREGCGPSQSDGCPYNGRLTTVKPRT
notes: M13 phage displaying this insert as N-terminal pIII fusion; whole phage in the ELISA
D2H/BSA [3]: 5 ratio

SGSLNAWQPRSWVGGAFRSHANNNLNPKPTMVTRHPT (modifications not checked) [phage DCX39]
OD [4]: 0.066 OD 650 nm
OD [5]: 0.299 OD 650 nm
D2H/BSA [6]: 5

SREEANWDGYKREMSHRSRFWDATHLSRPRRPANSGDPN (peptide, not shown: large carriers, also: displayed as N-terminal pIII fusion on M13 phage) [phage HAX9]
OD [7]: 0.075 OD 650 nm
OD [8]: 0.382 OD 650 nm
HPT/BSA [9]: 5

B2: phage HCA3 (peptide)
peptide: RHISEYSFANSHLMGGESKRKGCGINGSFSPTCPRSPTPAFRRT
modifications: cysteine pairing not given here; also: displayed as N-terminal pIII fusion on M13 phage
notes: M13 phage displaying this insert as N-terminal pIII fusion; whole phage in the ELISA; not shown: M13 pIII display protein and the vector-encoded flanking residues
OD [7]: 0.038 OD 650 nm
HPT1/BSA [10]: 1 ratio

B3: phage HAX42 (peptide, not shown: large carriers)
peptide: SDHALGTNLRSDNAKEPGDYNCCGNGNSTGRKVFNRRRPSAIPT
modifications: cysteine pairing not given here; also: displayed as N-terminal pIII fusion on M13 phage
OD [7]: 0.071 OD 650 nm
OD [8]: 0.32 OD 650 nm
HPT/BSA [9]: 5

B4: phage S21 (peptide)
peptide: SPRSFWPVVSRHESFGISNYLGCGYRTCISGTMTKSSPIYPRHS
notes: as for B1
OD [7]: 0.092 OD 650 nm
OD [11]: 0.845 OD 650 nm
hSI/BSA [12]: 9 ratio

B5: phage HAX40 (peptide)
peptide: REFAERRLWGCDDLSWRLDAEGCGPTPSNRAVKHRKPRPRSPAL
modifications: cysteine pairing not given here; also: displayed as N-terminal pIII fusion on M13 phage
notes: M13 phage displaying this insert as N-terminal pIII fusion; whole phage in the ELISA; also called H44; not shown: M13 pIII display protein and the vector-encoded flanking residues
OD [7]: 0.065 OD 650 nm
HPT/BSA [10]: 15 ratio
